The chains are these.
T1: Mcl-1, Q07820
T1 chain: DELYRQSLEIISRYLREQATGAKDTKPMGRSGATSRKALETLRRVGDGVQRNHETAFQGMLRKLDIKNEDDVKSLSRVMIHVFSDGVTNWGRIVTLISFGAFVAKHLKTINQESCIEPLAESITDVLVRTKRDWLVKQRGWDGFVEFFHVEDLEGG

For 50 molecules, SPOT signal as a fraction of Bim BH3's signal on the same receptor and array results are on record in PMC4072508, “Genome-Wide Prediction and Validation of Peptides That Bind Human Prosurvival Bcl-2 Proteins” (PLoS Computational Biology, 2014).

The experiment addresses T1, Mcl-1, Q07820. Briefly: peptide SPOT array, c-Myc-tagged receptor at 1 uM or 100 nM, anti-c-Myc-Cy3.
For KGAKSESAESLRQWAQELEENLNELT [APOL4], the SPOT signal as a fraction of Bim BH3's signal on the same receptor and array was 0.01.

Regarding QPHTGKLCWFLDEAAARLLTVPFEKH [PGLS], the SPOT signal as a fraction of Bim BH3's signal on the same receptor and array came out at 0.02.

Take SPVPPVVHLTLRQAGDDFSRRYRRDF [BCL2]: the SPOT signal as a fraction of Bim BH3's signal on the same receptor and array was 0.26.

For PQRQRLLADLLHNVSQNIAAETRAED [DFFB], the SPOT signal as a fraction of Bim BH3's signal on the same receptor and array worked out at 0.02.

As to MRPEIWIAQELRRIGDEFNAYYARRV [BCL2L11], the SPOT signal as a fraction of Bim BH3's signal on the same receptor and array was 1.

Take SVLRKALHDSLHDCSHWFYTRWKDWE [ZRANB1]: the SPOT signal as a fraction of Bim BH3's signal on the same receptor and array is 0.04.

For the molecule ERMKGTFCIALEKFSKAIYKYVNHWR [HEATR7B2], the SPOT signal as a fraction of Bim BH3's signal on the same receptor and array was 0.37.

For KYFLQNFSCFLEETADEWAEKMPKGP [EFCAB6], the SPOT signal as a fraction of Bim BH3's signal on the same receptor and array came to 0.03.

DVTHSKAVEALKEAGSIVRLYVKRRK [DLG1] had an SPOT signal as a fraction of Bim BH3's signal on the same receptor and array of 0.13.

On to EPTMKTLSDDLDEAAKEFQEKHKKEV [NAT10], for which the SPOT signal as a fraction of Bim BH3's signal on the same receptor and array came to 0.01.

On to GKDHPAVAATLNNLAVLYGKRGKYKE [KLC1], for which the SPOT signal as a fraction of Bim BH3's signal on the same receptor and array was 0.22.

As for NATHEEVVHLLRNALDEVTITVEYLR [SNTG2], the SPOT signal as a fraction of Bim BH3's signal on the same receptor and array was determined as 0.01.

As for TGVNGEISYSLFQASDEISKTFKVDF [PCDHB8], the SPOT signal as a fraction of Bim BH3's signal on the same receptor and array is 0.02.

Regarding HPEHFVCAFCLTQLSKGIFREQNDKT [LPXN], the SPOT signal as a fraction of Bim BH3's signal on the same receptor and array came to 0.03.

For the molecule QLQTLPYVGFLEHIGRILDLQLEDNK [SLITRK6], the SPOT signal as a fraction of Bim BH3's signal on the same receptor and array turned out to be 0.02.

As for LEMVSGSIQVLKHMSGRVGEELDEQG [STX10], the SPOT signal as a fraction of Bim BH3's signal on the same receptor and array was 0.02.

As for VMGSMFAVISLASIAVYFAKRFKRKN [LRRN1], the SPOT signal as a fraction of Bim BH3's signal on the same receptor and array was found to be 0.13.

For ADLRALLCRELRPLGAYMSGRLKVKG [STOML1], the SPOT signal as a fraction of Bim BH3's signal on the same receptor and array amounted to 0.37.

CRREPGLAETLRDAAHLGLLECQFQF [WNT9B] had an SPOT signal as a fraction of Bim BH3's signal on the same receptor and array of 0.02.

For the molecule QISTRLPSDYIYGIGEQVHKRFRHDL [SI], the SPOT signal as a fraction of Bim BH3's signal on the same receptor and array turned out to be 0.12.

For the molecule AEVELEYSRGLEKLAERFSSRGGRLG [ARHGAP4], the SPOT signal as a fraction of Bim BH3's signal on the same receptor and array turned out to be 0.02.

RTGDIALAYRLTDLGSRLLSQLERPL [KIAA1383] came in with an SPOT signal as a fraction of Bim BH3's signal on the same receptor and array of 0.03.

In the case of KRAAEMMASLLKDLAEIGIAVGNNDV [KIF5B], the SPOT signal as a fraction of Bim BH3's signal on the same receptor and array worked out at 0.02.

The molecule LDDSVEVIKALKNGGAHLDFRAKDGM [SHANK2] showed an SPOT signal as a fraction of Bim BH3's signal on the same receptor and array of 0.02.

For LFKAADSSRSIYEVAMQLLQILEPKM [FRYL], the SPOT signal as a fraction of Bim BH3's signal on the same receptor and array is 0.02.

For the molecule LPGRPGLAALLGRLSDRLGRNRDRQR [PGS1], the SPOT signal as a fraction of Bim BH3's signal on the same receptor and array came out at 0.24.

With DRYEGFCVDMLKELAEILRFNYKIRL [GRIK4], the SPOT signal as a fraction of Bim BH3's signal on the same receptor and array is 0.03.

Turning to PFNKEELSAILKFGAEELFKEPEGEE [CHD1], the SPOT signal as a fraction of Bim BH3's signal on the same receptor and array was 0.02.

Turning to EEVFQSLSKILDVASLEVLNEVNRRS [GCN1L1], the SPOT signal as a fraction of Bim BH3's signal on the same receptor and array was determined as 0.14.

Molecule DPLNDNVATLLHQSSDRFVAELWKDV [MYH10] had an SPOT signal as a fraction of Bim BH3's signal on the same receptor and array of 0.02.

In the case of LELVSGSIGVLKNMSQRIGGELEEQA [STX6], the SPOT signal as a fraction of Bim BH3's signal on the same receptor and array was 0.02.

TRELQELARKLQELLDASENLLTENT [TXNDC11] returned an SPOT signal as a fraction of Bim BH3's signal on the same receptor and array of 0.01.

Take SGEFARICRDDSHIGDAVVISCAKDG [PCNA]: the SPOT signal as a fraction of Bim BH3's signal on the same receptor and array amounted to 0.01.

For AAPEGDWARLLEQMGALAVRGSRRER [ZBED3], the SPOT signal as a fraction of Bim BH3's signal on the same receptor and array was 0.11.

LWAAQRYGRELRRMSDEFVDSFKKGL [BAD] yielded an SPOT signal as a fraction of Bim BH3's signal on the same receptor and array of 0.53.

Regarding FSDCLMVVQFLRNFGKVLGFDVNIDV [BAZ2B], the SPOT signal as a fraction of Bim BH3's signal on the same receptor and array turned out to be 0.02.

Molecule AELEVECATQLRRFGDKLNFRQKLLN [PMAIP1] returned an SPOT signal as a fraction of Bim BH3's signal on the same receptor and array of 0.85.

Molecule AIDAIFLTTTLQNISEDVLAVMDNKN [CKAP5] displayed an SPOT signal as a fraction of Bim BH3's signal on the same receptor and array of 0.02.

As for SSEEITVAGNLEKSAERSTQGLKFHL [RSC1A1], the SPOT signal as a fraction of Bim BH3's signal on the same receptor and array was 0.01.

DISALTASNLLKRYAEKYSGVLDSPY [FIGNL2] gave an SPOT signal as a fraction of Bim BH3's signal on the same receptor and array of 0.03.

Molecule PFNKEELTAILKFGAEDLFKELEGEE [CHD2] came in with an SPOT signal as a fraction of Bim BH3's signal on the same receptor and array of 0.01.

PASTDAVSALLEQTAVELEKRQEGRS [WWC1]: the SPOT signal as a fraction of Bim BH3's signal on the same receptor and array worked out at 0.01.

On to DFITALPARGLDHIAENILSYLDAKS [BTRC], for which the SPOT signal as a fraction of Bim BH3's signal on the same receptor and array worked out at 0.02.

Take VPARAPAVDLLEEAADLLVVHLDFRA [PEX26]: the SPOT signal as a fraction of Bim BH3's signal on the same receptor and array worked out at 0.02.

LGKRTGTVQVLKRSGRELIENSRDDT [MACF1] registered an SPOT signal as a fraction of Bim BH3's signal on the same receptor and array of 0.05.

DRFEGYCIDLLRELSTILGFTYEIRL [GRIK2] displayed an SPOT signal as a fraction of Bim BH3's signal on the same receptor and array of 0.02.

FDRAVVLSHYIHNLSSEMFSEFDKRY [PRL] came in with an SPOT signal as a fraction of Bim BH3's signal on the same receptor and array of 0.02.

Molecule AKYLSGIAHFLEKLAFSSTARFDSKD [PMPCA] came in with an SPOT signal as a fraction of Bim BH3's signal on the same receptor and array of 0.06.

AEIELEYSRSLEKLAERFSSKIRSSR [SRGAP3] yielded an SPOT signal as a fraction of Bim BH3's signal on the same receptor and array of 0.07.

The molecule KKSLAGAAQILLKGAERLTKSVTENQ [MED17] came in with an SPOT signal as a fraction of Bim BH3's signal on the same receptor and array of 0.03.
